Assay results: publication PMC10071043, “Cryo-EM structure of the RuvAB-Holliday junction intermediate complex from Pseudomonas aeruginosa” (Frontiers in Plant Science, 2023)

T1: PaRuvA (Pseudomonas aeruginosa, UniProt Q51425 1-201)
T1 sequence: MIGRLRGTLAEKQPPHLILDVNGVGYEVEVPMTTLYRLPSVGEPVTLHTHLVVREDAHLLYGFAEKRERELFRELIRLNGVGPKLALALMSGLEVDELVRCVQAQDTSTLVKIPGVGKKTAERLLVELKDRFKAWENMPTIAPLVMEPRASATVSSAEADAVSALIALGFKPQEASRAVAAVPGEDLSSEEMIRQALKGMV

B1: Pseudomonas aeruginosa RuvB (enzyme, UniProt Q51426 1-352, looked up)
chain: MIEPDRLISAVSGRERDEQLDRAIRPLKLADYIGQPSVREQMELFIHAARGRQEALDHTLIFGPPGLGKTTLANIIAQEMGVSIKSTSGPVLERPGDLAALLTNLEAGDVLFVDEIHRLSPIVEEVLYPAMEDFQLDIMIGEGPAARSIKLDLPPFTLVGATTRAGMLTNPLRDRFGIVQRLEFYNVEDLATIVSRSAGILGLEIEPQGAAEIAKRARGTPRIANRLLRRVRDFAEVRGQGDITRVIADKALNLLDVDERGFDHLDRRLLLTMIDKFDGGPVGIDNLAAALSEERHTIEDVLEPYLIQQGYIMRTPRGRVVTRHAYLHFGLNIPKRLGPGVTTDLFTSEDGN
notes: RuvB, AAA+ ATPase motor protein of Pseudomonas aeruginosa; cDNA synthesised (GenBank ID 882028); domains N, M and C; In the cryo-EM complex eight RuvB subunits form two open rings of four; only one ring is modelled; GST removed with PreScission protease; also called PaRuvB; source: E. coli BL21 (DE3), purified (GST Sepharose, Source 15Q, Superdex 200); not shown: GST, N-terminal, cleaved
B2: Pseudomonas aeruginosa RuvA (natural protein, UniProt Q51425 1-201, looked up)
chain: T1 sequence
notes: cDNA synthesised (GenBank ID 879609); domains D1, D2 and D3; In the cryo-EM complex eight RuvA subunits (two tetramers) sandwich one Holliday junction DNA; GST removed with PreScission protease; also called PaRuvA; source: E. coli Rosetta (DE3), purified (GST Sepharose, Source 15Q, Superdex 200); not shown: GST, N-terminal, cleaved
B3: HJ2 (HJ2-A/B/C/D) (structured_DNA)
DNA 1: CACTGTGATGCACGATGATAGAACACAGTACTCAGTGCTGCAGTGCTCAGGTGTG
DNA 2: ATACAGATGTAGAGCCAGCACTGAGTACTGTGTTCTATCATCGTGCATCACAGTG
DNA 3: CACTGTGATGGCATGTATCCGAACACAGTACTCAGTGCTGGCTCTACATCTGTAT
DNA 4: CACACCTGAGCACTGCAGCACTGAGTACTGTGTTCGGATACATGCCATCACAGTG

How the values were obtained:
[1] = target: the molecule itself; assay: cryo-EM structure; HJ DNA (HJ2) pre-incubated with RuvA at 4°C for 15 min, then with RuvB for 15 min, RuvA:RuvB:HJ = 8:16:1.2; 50 mM NaCl, 20 mM HEPES pH 7.4, 1 mM ATPγS, 10 mM MgCl2, 1 mM DTT; complex purified on Superose 6
[2] = target: B1; assay: as above; details: both partners purified
PaRuvA;PaRuvB = PaRuvA;PaRuvB (Pseudomonas aeruginosa;Pseudomonas …, UniProt Q51425;Q51426 1-201;1-352, |); assay: cryo-EM; RuvAB-HJ intermediate complex; PDB assigned from residue and nucleotide counts; binding buffer for cryo-EM not given in material; proteins in 20 mM HEPES pH 7.4, 200 mM NaCl, 15 mM reduced glutathione, 1 mM DTT; DNA annealed in 100 mM HEPES pH 7.4, 50 mM NaCl; details: protein: recombinant;recombinant; tags: GST tag removed (PreScission);GST tag removed (PreScission); chain copies: 8;8; four-way Holliday junction of 4 strands; A/B and C/D annealed first, then mixed
PaRuvA = target: T1, PaRuvA; assay: cryo-EM; RuvA-HJ core region of the RuvAB-HJ complex, 3.0 A; PDB assigned from residue and nucleotide counts; binding buffer for cryo-EM not given in material; proteins in 20 mM HEPES pH 7.4, 200 mM NaCl, 15 mM reduced glutathione, 1 mM DTT; DNA annealed in 100 mM HEPES pH 7.4, 50 mM NaCl; details: protein: recombinant; tags: GST tag removed (PreScission); chain copies: 8; four-way Holliday junction of 4 strands; A/B and C/D annealed first, then mixed
PaRuvB = PaRuvB (Pseudomonas aeruginosa, UniProt Q51426 1-352); assay: cryo-EM; RuvB ring on one HJ arm duplex in the RuvAB-HJ complex; RuvB1 and RuvB2 contact DNA via C-terminal beta-hairpins, RuvB3 and RuvB4 DNA-free; PDB assigned from residue and nucleotide counts; binding buffer for cryo-EM not given in material; proteins in 20 mM HEPES pH 7.4, 200 mM NaCl, 15 mM reduced glutathione, 1 mM DTT; DNA annealed in 100 mM HEPES pH 7.4, 50 mM NaCl; details: protein: recombinant; tags: GST tag removed (PreScission); chain copies: 8; four-way Holliday junction of 4 strands; A/B and C/D annealed first, then mixed

Binder	stoichiometry N [1]	binding result [2]	binding result (PaRuvA;PaRuvB)	binding result (PaRuvA)	binding result (PaRuvB)
B1	4				
B2	8	binds			
B3			binds	binds	binds
